Measurements from US20180021429A1, “ANTICANCER AGENTS OR ANTIMETASTATIC AGENTS USING FSTL1 AND COMBINATION DRUG THEREOF” (PHARMA FOODS INTERNATIONAL CO., LTD., priority 2015, published 2018).

Test system: mouse bone marrow cells
Assay: Inhibition of induction of mesenchymal stem cells (MSC) by FSTL1 in mouse bone marrow cells (Examples 4, 6, 8, 12)
Assay type: cell-based
Conditions: for inhibitory activity against the expansion of ALCAM-positive cells and PDGFRA-positive cells by FSTL1: Example 4: 50 ng/mL FSTL1, 10 μg/mL antibody, vs control anti-DNP antibody
Experimental: It is known that when bone marrow cells are stimulated with FSTL1, mesenchymal stem cells (MSCs) having pluripotency or self-proliferative capacity grow (Cancer Research 73: 6185, 2013). Thus, 2×10^7 cells/well of bone marrow cells collected from the thigh bone of a C57BL/6 mouse were suspended in 3 mL/well of RPMI1640 (GIBCO/Thermo Fisher Scientific Inc., Cat. No. C11875500BT) medium containing 2% fetal bovine serum, supplemented with 50 ng/mL (final concentration) of FSTL1 (R&D Systems, Inc. Cat#1694-FN-050) and 10 μg/mL of the anti-FSTL1 antibody (#5-2, […], #5-8, #5-10, #5-43, #6-55, or #7-34) or its isotype mouse IgG (anti-DNP antibody) as a control antibody “Control”, and cultured under stimulation (6-well plate). 11 days thereafter, the number of cells was counted while the cells were stained with a PE-labeled anti-ALCAM antibody (eBioscience, Cat. No. 12-1661-82) and a PE-labeled anti-PDGFRA antibody (eBioscience, Cat#12-1401-81) in order to examine the expression of MSC markers, and the contents of ALCAM-positive cells and PDGFR-positive cells were analyzed by flow cytometry using FACScan (Becton, Dickinson and Company, Code. BECTON-DICKINSON-FACSCAN) to calculate the number of each positive cell per culture.
(§1) Mouse bone marrow cells prepared in the same way as in Example 4 were supplemented with 50 ng/mL (final concentration) of FSTL1 and 10 μg/mL of the anti-FSTL1 antibody (#5-2, #5-3, #5-8, #5-10, #5-43, #6-55, or #7-34) or a control antibody anti-DNP antibody and cultured under stimulation. 11 days thereafter, the number of cells was counted while the cells were stained with a PE-Cy5-labeled anti-CD45 antibody (BD Pharmingen/Becton, Dickinson and Company, Cat. No. 555484), and the content of CD45− negative cells reported to generally contain MSCs at a high rate was analyzed by flow cytometry using FACScan to calculate the percentage and number of MSCs per culture (FIG. 99A).
as §1, with “20” for “50”, “#8-1, #8-4, #8-7, and #8-8)” for “or #7-34)”, “8” for “11”, “antibody,” for “antibody (BD Pharmingen/Becton, Dickinson and Company, Cat. No. 555484),”, “cells” for “cells reported to generally contain MSCs at a high rate”, “100A).” for “99A).”
Mouse bone marrow cells prepared in the same way as in Example 4 were supplemented with 20 ng/mL (final concentration) of FSTL1 and 10 μg/mL of the anti-FSTL1 antibody (#5-2, #5-8, #6-55, […], #8-1, #8-4, #8-7, or #8-8) or a control antibody anti-DNP antibody and cultured under stimulation. 8 days thereafter, the number of cells was counted while the cells were stained with a PE-Cy5-labeled anti-CD45 antibody, and the content of CD45− negative cells was analyzed by flow cytometry using FACScan to calculate the percentage and number of MSCs per culture (FIG. 101).

[1] = Example 6: 50 ng/mL FSTL1, 10 μg/mL antibody, 11 days, FIG. 99A
[2] = Example 8: 20 ng/mL FSTL1, 10 μg/mL antibody, 8 days, FIG. 100A
[3] = Example 12: 20 ng/mL FSTL1, 10 μg/mL antibody, 8 days, FIG. 101

Row | Molecule | inhibitory activity against the expansion of ALCAM-positive cells and PDGFRA-positive cells by FSTL1 (11 days) | inhibitory activity against the expansion of CD45-negative cells by FSTL1 [1] | inhibitory activity against the expansion of CD45-negative cells by FSTL1 [2] | inhibitory activity against the expansion of CD45-negative cells by FSTL1 [3]
1 | #5-43: chicken-mouse chimeric anti-FSTL1 antibody clone; variable regions SEQ ID NO: 779 (light), 781 (heavy) (antibody, V domains shown, mouse constant regions) VH: AVTLDESGGGLQTPGGGLSLVCKGSGFTFSSFNMFWVRQAPGKGLEWVAGIGKDGGTGYGAAVDGRATISKDSGQSTLRLQLNNLRAEDTGTYYCAKAAGGCSYDWCGAYTGDIDTWGHGTEVIVSS VL: ASTQPSSVSANPGEAVKITCSGGSGSYYGWYQQKSPGSAPVTVIYNNNQRPSDIPSRFSGSKSGSTATLTITGVQAEDEAVYFCGGYDSSTGHGGIFGAGTTLTVL | slightly strong tendency of inhibitory activity | higher inhibitory activity and substantially completely inhibited the action of FSTL1 | exhibited inhibitory activity | 
2 | #8-7: chicken-mouse chimeric anti-FSTL1 antibody clone; variable regions SEQ ID NO: 799 (light), 801 (heavy) (antibody, V domains shown, mouse constant regions) VH: AVTLDESGGGLQTPGGGLSLVCKGSGFTFSSFNMFWVRQAPGKGLEWVAGIGKDGVPKYGAAVDGRATISKDNGQSTLRLQLNNLRAEDTGTYFCAKAAGGCSYDWCGIYAGDIDTWGHGTEVIVSS VL: ASTQPSSVSANPGEAVKITCSGGSGSYYGWYQQKSPGSAPVTVIYNNNQRPSDIPSRFSGSKSGSTATLTITGVQAEDEAVYFCGGYDSSTGHGGIFGAGTTLTVL |  |  |  | higher inhibitory activity was confirmed in the order of #7-34, #5-2, #6-55, and #8-7
3 | #8-1: chicken-mouse chimeric anti-FSTL1 antibody clone; variable regions SEQ ID NO: 791 (light), 793 (heavy) (antibody, V domains shown, mouse constant regions) VH: AVTLDESGGGLQTPGGALSLVCKGSGFTFSSFNMFWVRQAPGKGLEWVAGIGKDGVPKYGAAVDGRATISKDNGQSTMRLQLNNLRAEDTGTYFCAKAAGGCSYDWCGIYAGDIDTWGHGTEVIVSS VL: ASTQPSSVSANPGEAVKITCSGGSGSYYGWYQQKSPGSAPVTVIYNNNQRPSDIPSRFSGSKSGSTATLTITGVQAEDEAVYFCGGYDSSSGHGGIFGAGTTLTVL |  |  | exhibited inhibitory activity | 
4 | #5-3: chicken-mouse chimeric anti-FSTL1 antibody clone; variable regions SEQ ID NO: 767 (light), 769 (heavy) (antibody, V domains shown, mouse constant regions) VH: AVTLDESGGGLQTPGGALSLVCKGSGFSFSSFNMFWVRQAPGKGLEWVAGIGKDGVPKYGAAVDGRATISKDNGQSTMRLQLNNLRAEDTGTYFCAKAAGGCSYDWCGIYAGDIDTWGHGTEVIVSS VL: ASTQPSSVSANPGETVKITCSGGSGYYYGWYQQKSPGSVPVTVIYNNNNRPSDIPSRFSGSKSGSTGTLTITGVRAEDEAVYYCGGYDNSGTGIFGAGTTLTVL |  | higher inhibitory activity and substantially completely inhibited the action of FSTL1 |  | 
5 | #5-2: chicken-mouse chimeric anti-FSTL1 antibody clone; variable regions SEQ ID NO: 763 (light), 765 (heavy) (antibody, V domains shown, mouse constant regions) VH: AVTLDESGGGLQTPGGGLSLVCKGSGFTFSSFNMFWVRQAPGKGLEWVAGVGKDGGTGYGAAVDGRATISKDNGQSTLRLQLNNLRAEDTGTYYCAKAAGGCSYGWCGSYVGDIDAWGHGTEVIVSS VL: ASTQPSSVSANPGEAVKITCSGGSGSYYGWYQQKSPGSAPVTVIYNNNQRPSDIPSRFSGSKSGSTATLTITGVQAEDEAVYFCGGYDSSTGHGGIFGAGTTLTVL |  |  |  | higher inhibitory activity was confirmed in the order of #7-34, #5-2, #6-55, and #8-7
6 | #8-4: chicken-mouse chimeric anti-FSTL1 antibody clone; variable regions SEQ ID NO: 795 (light), 797 (heavy) (antibody, V domains shown, mouse constant regions) VH: AVTLDESGGGLQTPGGGLSLVCKGSGFTLSSFNMFWVRQAPGKGLEWVAGVGKDGGTAYGAAVDGRATISRDSGQSTVRLQLNNLRAEDTGTYFCAKAAGGCSYSWCGAYVGDLDAWGHGTEVIVSS VL: ASSQPSSVSANPGETVKITCSGGSGYYYGWYQQKSPGSAPVTVIYNNDNKPSDIPSRFSGSKSGSTGTLTITGVQVEDEAVYFCGGYDNSGTGIFGAGTTLTVL |  |  | exhibited inhibitory activity | 
7 | #5-8: chicken-mouse chimeric anti-FSTL1 antibody clone; variable regions SEQ ID NO: 771 (light), 773 (heavy) (antibody, V domains shown, mouse constant regions) VH: AVTLDESGGGLQTPGGGLSLVCKGSGFTFSSFNMFWVRQAPGKGLEWVAGIGKDGVPKYGTAVDGRATISKDNGQSTMRLQLNNLRAEDTGTYFCAKAAGGCSYDWCGIYTGDIDTWGHGTEVIVSS VL: ASTQPSSVSANPGEAVKITCSGGSGSYYGWYQQKSPGSAPVTVIYNNNQRPSDIPSRFSGSKSGSTATLTITGVQAEDEAVYFCGGYDSSTGHGGIFGAGTTLTVL |  |  | exhibited inhibitory activity | 
8 | #6-55: chicken-mouse chimeric anti-FSTL1 antibody clone; variable regions SEQ ID NO: 783 (light), 785 (heavy) (antibody, V domains shown, mouse constant regions) VH: AVTLDESGGGLQTPGGALSLVCKGSGFTFTSVTMQWVRQAPGKGLEWVASVCSGSSTYYAPAVKGRATISRDNGQSTVRLQLSNLRPEDTGTYYCAKIAGRARWSCTSAAYNIDAWGHGTEVIVSS VL: ASTQPSSVSAIPGETVKITCSGGGNNYGWYQQRSPGSAPVTVIYYNDNRPSNIPSRFSGSTSGSTSTLTITGVQADDEAIYYCGSWDSNTDSGIFGAGTTLTVL | slightly strong tendency of inhibitory activity |  | exhibited inhibitory activity | higher inhibitory activity was confirmed in the order of #7-34, #5-2, #6-55, and #8-7
9 | #7-34: chicken-mouse chimeric anti-FSTL1 antibody clone; variable regions SEQ ID NO: 787 (light), 789 (heavy) (antibody, V domains shown, mouse constant regions) VH: AVTLDESGGGLQTPGGGLSLVCKASGFTFSSVTMQWVRQAPGKGLEWVASICSGSSTYYGPAVKGRATISRDNGQNTVRLQLNNLRAEDTATYYCAKIVGRGRWSCTSAAYNIDAWGHGTEVIVSS VL: ASTQPSSVSANPGETVKITCSGGGNNYGWYQQKSPGSAPVTVIYYNNNRPSNIPSRFSGSTSGSTSTLTITGVQAEDEAVYYCGSYEGSTDSGIFGAGTTLTVL | slightly strong tendency of inhibitory activity | higher inhibitory activity and substantially completely inhibited the action of FSTL1 |  | higher inhibitory activity was confirmed in the order of #7-34, #5-2, #6-55, and #8-7
